According to publication PMC4256133 (Proteins, 2014):

Target: the molecule itself
Assay: crystal structure

B1: Octaprenyl pyrophosphate synthase from Escherichia coli (enzyme, E. coli)
chain: MNLEKINELTAQDMAGVNAAILEQLNSDVQLINQLGYYIVSGGGKRIRPMIAVLAARAVGYEGNAHVTIAALIEFIHTATLLHDDVVDESDMRRGKATANAAFGNAASVLVGDFIYTRAFQMMTSLGSLKVLEVMSEAVNVIAEGEVLQLMNVNDPDITEENYMRVIYSKTARLFEAAAQCSGILAGCTPEEEKGLQDYGRYLGTAFQLIDDLLDYNADGEQLGKNVGDDLNEGKPTLPLLHAMHHGTPEQAQMIRTAIEQGNGRHLLEPVLEAMNACGSLEWTRQRAEEEADKAIAALQVLPDTPWREALIGLAHIAVQRDR
  stoichiometry N: 2
